# Source: patent US20260007748A1 (KELONIA THERAPEUTICS, published 2026)
# T1: B cell maturation antigen (BCMA) (human, UniProt Q02223 1-184)
# T1 construct: BCMA as carried by RPMI-8226 (high BCMA) and Daudi (low BCMA) tumor cells; also called TNFRSF17; tumor necrosis factor receptor superfamily member 17
# T1 sequence: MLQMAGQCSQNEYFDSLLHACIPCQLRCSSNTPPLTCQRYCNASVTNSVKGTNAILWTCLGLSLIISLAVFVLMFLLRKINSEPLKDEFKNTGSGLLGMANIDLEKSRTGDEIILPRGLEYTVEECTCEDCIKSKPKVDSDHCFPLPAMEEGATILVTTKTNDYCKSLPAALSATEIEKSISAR
# B1: anti-BCMA CAR of recombinant lentivirus LV 9 (SEQ ID NO: 273) (other)
# chain: EVQLLESGGGLVQPGGSLRLSCAASGFTFGSEAMSWVRQAPGKERELVSAISGSGEVTYYADSVKGRFTISRDNSKNTLYLQMNSLRAEDTAVYYCQRLVEAKRHWGQGTQVTVSSTTTPAPRPPTPAPTIASQPLSLRPEACRPAAGGAVHTRGLDFACDIYIWAPLAGTCGVLLLSLVITLYCKRGRKKLLYIFKQPFMRPVQTTQEEDGCSCRFPEEEEGGCELRVKFSRSADAPAYQQGQNQLYNELNLGRREEYDVLDKRRGRDPEMGGKPRRKNPQEGLYNELQKDKMAEAYSEIGMKGERRRGKGHDGLYQGLSTATKDTYDALHMQALPPR
# notes: Chimeric antigen receptor on transduced human PBMCs: anti-BCMA VHH, CD8α hinge and TM, CD137 costim, CD3ζ; also called LV 9.1 to LV 9.9
# Target: T1, B cell maturation antigen (BCMA)
# Assay: co-culture of transduced PBMCs with RPMI-8226 (high BCMA) or Daudi (low BCMA) cells; recognition read by IFNγ
# Procedure: PBMCs transduced with recombinant lentiviral particles comprising a viral envelope expressing a mutated VSIV-G and a non-viral membrane-bound tropism polypeptide that binds CD3 and a lentiviral vector encoding an MNDU3 promoter operably linked to a polynucleotide encoding a CD8α signal peptide and an anti-BCMA CAR and a WPRE operably linked to the 3′ prime end of the polynucleotide encoding the anti-BCMA CAR (18 anti-BCMA CARs were evaluated) were co-cultured with Daudi cells (low BCMA expression) or RPMI-8226 cells (high BCMA expression) for 24 hours. After 24 hours, IFNγ levels in co-culture supernatant were measured and plotted as a function of % anti-BCMA CAR positive cells in the co-culture.
# 5×10⁴ PBMCs transduced with recombinant lentiviruses LV 1 to LV 19 were co-cultured with 5×10⁴ high BCMA-expressing tumor cells (RPMI-8226) or 5×10⁴ low BCMA-expressing tumor cells (Daudi) for 24 hours. Anti-BCMA CAR activity was assessed by harvesting co-culture supernatants and measuring IFNγ levels using a Meso Scale Discovery (MSD®) assay. The percentage of anti-BCMA CAR positive cells was plotted against IFNγ levels produced in co-culture. FIG. 2D.
binder,measurement,value
B1,binding result,binds
